Source: patent publication US20110306057A1

Molecular target: PP2A regulatory subunit B56γ (human (endogenous in human HEK TER cells)), Q13362
Test: anti-FLAG co-IP from HEK TER cells, immunoblot, densitometry; +++ >90%, ++ 50-90%, + <50%
Conditions: remark: other sources report otherwise

Chain of PP2A regulatory subunit B56γ (human (endogenous in human HEK TER cells)), Q13362 (Q13362 whole entry): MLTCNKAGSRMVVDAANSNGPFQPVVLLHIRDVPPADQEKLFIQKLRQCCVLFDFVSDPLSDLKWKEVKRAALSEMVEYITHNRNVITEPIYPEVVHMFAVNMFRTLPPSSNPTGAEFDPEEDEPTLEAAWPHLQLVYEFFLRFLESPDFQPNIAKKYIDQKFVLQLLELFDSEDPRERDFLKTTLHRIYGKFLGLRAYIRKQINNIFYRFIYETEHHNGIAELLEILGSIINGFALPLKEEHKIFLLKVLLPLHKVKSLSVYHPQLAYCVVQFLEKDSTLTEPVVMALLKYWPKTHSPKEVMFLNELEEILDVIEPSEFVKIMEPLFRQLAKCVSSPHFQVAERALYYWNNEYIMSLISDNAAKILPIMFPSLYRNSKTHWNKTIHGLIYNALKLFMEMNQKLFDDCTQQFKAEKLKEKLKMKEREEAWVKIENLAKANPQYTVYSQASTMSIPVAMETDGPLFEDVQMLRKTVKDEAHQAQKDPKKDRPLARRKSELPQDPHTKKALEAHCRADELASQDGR

binding level (percent, co-immunoprecipitation densitometry): > 90%
B1: wild type (WT) FLAG epitope-tagged version of PP2A Aβ, P30154 1-601 (protein, not shown: small tags and cut ends)
chain: MAGASELGTGPGAAGGDGDDSLYPIAVLIDELRNEDVQLRLNSIKKLSTIALALGVERTRSELLPFLTDTIYDEDEVLLALAEQLGNFTGLVGGPDFAHCLLPPLENLATVEETVVRDKAVESLRQISQEHTPVALEAYFVPLVKRLASGDWFTSRTSACGLFSVCYPRASNAVKAEIRQQFRSLCSDDTPMVRRAAASKLGEFAKVLELDSVKSEIVPLFTSLASDEQDSVRLLAVEACVSIAQLLSQDDLETLVMPTLRQAAEDKSWRVRYMVADRFSELQKAMGPKITLNDLIPAFQNLLKDCEAEVRAAAAHKVKELGENLPIEDRETIIMNQILPYIKELVSDTNQHVKSALASVIMGLSTILGKENTIEHLLPLFLAQLKDECPDVRLNIISNLDCVNEVIGIRQLSQSLLPAIVELAEDAKWRVRLAIIEYMPLLAGQLGVEFFDEKLNSLCMAWLVDHVYAIREAATNNLMKLVQKFGTEWAQNTIVPKVLVMANDPNYLHRMTTLFCINALSEACGQEITTKQMLPIVLKMAGDQVANVRFNVAKSLQKIGPILDTNALQGEVKPVLQKLGQDEDMDVKYFAQEAISVLALA
